What was measured:
pro-Caspase-2 = biological target: T1, pro-Caspase-2 (UniProt P42575 1-452, limits assumed); test: co-immunoprecipitation, transfected HEK293T cells, SDS-PAGE/immunoblot
T1 sequence (looked up): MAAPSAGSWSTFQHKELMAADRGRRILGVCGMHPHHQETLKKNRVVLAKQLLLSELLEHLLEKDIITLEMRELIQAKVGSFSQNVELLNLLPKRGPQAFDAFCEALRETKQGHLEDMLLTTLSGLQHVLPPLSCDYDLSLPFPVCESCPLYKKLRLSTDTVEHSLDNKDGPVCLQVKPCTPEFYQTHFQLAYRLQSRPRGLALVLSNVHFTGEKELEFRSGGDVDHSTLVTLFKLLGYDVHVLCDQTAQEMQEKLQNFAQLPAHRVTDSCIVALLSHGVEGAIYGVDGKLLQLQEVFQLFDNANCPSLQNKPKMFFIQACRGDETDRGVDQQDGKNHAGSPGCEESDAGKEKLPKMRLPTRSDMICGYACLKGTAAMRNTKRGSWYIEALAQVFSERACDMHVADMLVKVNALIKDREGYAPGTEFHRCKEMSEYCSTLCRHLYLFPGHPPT
Procedure: (§1) The TUCAN polypeptides were expressed by transient transfection in HEK293T cells together with epitope-tagged pro-caspase-9 or other proteins. […] Cell lysates were prepared from transfected cells and immunoprecipitations were performed using anti-Flag or anti-Myc antibodies, followed by SDS-PAGE/immunoblot analysis.

Apaf1 = biological target: T2, Apaf1 (human, UniProt O14727 1-1248); test: as above
T2 sequence: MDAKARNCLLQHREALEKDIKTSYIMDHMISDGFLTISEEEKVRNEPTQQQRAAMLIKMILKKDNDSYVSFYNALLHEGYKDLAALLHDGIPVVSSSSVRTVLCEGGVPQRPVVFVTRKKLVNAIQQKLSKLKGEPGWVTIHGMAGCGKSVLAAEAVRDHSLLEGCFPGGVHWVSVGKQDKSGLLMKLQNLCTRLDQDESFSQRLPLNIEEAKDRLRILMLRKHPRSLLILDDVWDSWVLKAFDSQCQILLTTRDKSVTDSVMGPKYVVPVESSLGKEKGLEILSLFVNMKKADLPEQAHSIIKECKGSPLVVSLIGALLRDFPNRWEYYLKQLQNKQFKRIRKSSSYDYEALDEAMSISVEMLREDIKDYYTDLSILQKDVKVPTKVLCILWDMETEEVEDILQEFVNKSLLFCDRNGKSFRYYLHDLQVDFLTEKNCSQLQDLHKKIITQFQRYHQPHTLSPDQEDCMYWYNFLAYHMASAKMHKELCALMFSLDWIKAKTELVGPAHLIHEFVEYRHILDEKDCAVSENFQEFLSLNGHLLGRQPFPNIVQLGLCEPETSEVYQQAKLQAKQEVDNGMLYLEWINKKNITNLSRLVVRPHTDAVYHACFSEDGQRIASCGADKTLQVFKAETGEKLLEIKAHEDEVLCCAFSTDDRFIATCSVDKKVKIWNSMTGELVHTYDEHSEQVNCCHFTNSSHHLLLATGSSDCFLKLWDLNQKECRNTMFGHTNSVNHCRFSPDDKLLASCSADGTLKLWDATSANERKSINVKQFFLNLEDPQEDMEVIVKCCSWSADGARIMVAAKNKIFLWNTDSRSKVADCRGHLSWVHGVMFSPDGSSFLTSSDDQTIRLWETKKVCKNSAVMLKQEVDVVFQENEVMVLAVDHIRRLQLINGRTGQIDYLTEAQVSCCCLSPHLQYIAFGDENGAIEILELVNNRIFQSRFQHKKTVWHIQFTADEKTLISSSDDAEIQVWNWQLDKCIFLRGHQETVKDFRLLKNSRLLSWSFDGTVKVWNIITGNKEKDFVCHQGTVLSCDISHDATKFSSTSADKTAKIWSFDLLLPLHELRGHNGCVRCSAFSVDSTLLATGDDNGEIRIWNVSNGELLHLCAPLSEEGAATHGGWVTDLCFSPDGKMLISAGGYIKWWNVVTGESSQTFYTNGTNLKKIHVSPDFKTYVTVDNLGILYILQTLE
Procedure: as §1

B1: TUCAN (Tumor Up-regulated CARD-containing Antagonist of Caspase Nine), full-length (other)
chain: MMRQRQSHYCSVLFLSVNYLGGTFPGDICSEENQIVSSYASKVCFEIEEDYKNRQFLGPEGNVDVELIDKSTNRYSVWFPTAGWYLWSATGLGFLVRDEVTVTIAFGSWSQHLALDLQHHEQWLVGGPLFDVTAEPEEAVAEIHLPHFISLQGEVDVSWFLVAHFKNEGMVLEHPARVEPFYAVLESPSFSLMGILLRIASGTRLSIPITSNTLIYYHPHPEDIKFHLYLVPSDALLTKAIDDEEDRFHGVRLQTSPPMEPLNFGSSYIVSNSANLKVMPKELKLSYRSPGEIQHFSKFYAGQMKEPIQLEITEKRHGTLVWDTEVKPVDLQLVAASAPPPFSGAAFVKENHRQLQARMGDLKGVLDDLQDNEVLTENEKELVEQEKTRQSKNEALLSMVEKKGDLALDVLFRSISERDPYLVSYLRQQNL
notes: Full-length TUCAN expressed by transient transfection in HEK293T cells; also called full-length TUCAN; CARD-X
binding result (pro-Caspase-2): no binding | binding result (Apaf1): no binding

— patent US20030165887A1 (BURNHAM INSTITUTE, published 2003)
